Literature values, collected in publication PMC2949527.
pKd: −log10 of the molar value.

Target: RFX5(25-90)2·RFXAP(214-272) complex 25-90 + 214-272 (Homo sapiens) (UniProt P48382)
Sequence (P48382 2-616, chain 1 of 2): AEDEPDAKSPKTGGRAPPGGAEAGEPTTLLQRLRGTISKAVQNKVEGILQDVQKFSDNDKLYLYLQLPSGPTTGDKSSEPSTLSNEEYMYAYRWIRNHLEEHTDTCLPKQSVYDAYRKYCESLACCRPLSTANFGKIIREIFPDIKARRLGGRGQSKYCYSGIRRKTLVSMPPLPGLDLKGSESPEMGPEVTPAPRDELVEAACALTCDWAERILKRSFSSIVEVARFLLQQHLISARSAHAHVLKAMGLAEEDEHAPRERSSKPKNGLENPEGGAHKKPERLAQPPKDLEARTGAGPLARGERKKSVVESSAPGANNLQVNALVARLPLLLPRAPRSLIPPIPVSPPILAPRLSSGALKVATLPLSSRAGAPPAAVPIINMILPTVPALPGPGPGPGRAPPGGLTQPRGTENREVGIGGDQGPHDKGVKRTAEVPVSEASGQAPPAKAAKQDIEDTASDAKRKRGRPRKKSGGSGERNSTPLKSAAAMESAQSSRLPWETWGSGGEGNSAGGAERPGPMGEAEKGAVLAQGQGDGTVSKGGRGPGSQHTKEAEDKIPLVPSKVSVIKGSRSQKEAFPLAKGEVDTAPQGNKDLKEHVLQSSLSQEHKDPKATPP
Sequence (O00287 whole entry, chain 2 of 2, further chain): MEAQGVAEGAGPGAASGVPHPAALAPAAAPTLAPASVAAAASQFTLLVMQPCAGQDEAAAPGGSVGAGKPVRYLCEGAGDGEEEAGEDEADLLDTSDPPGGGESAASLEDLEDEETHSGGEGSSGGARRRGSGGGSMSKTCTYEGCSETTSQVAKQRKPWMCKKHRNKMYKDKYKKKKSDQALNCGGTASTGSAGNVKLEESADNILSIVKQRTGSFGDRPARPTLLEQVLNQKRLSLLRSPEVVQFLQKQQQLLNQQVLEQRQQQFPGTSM

RFXB, sequence (O14593 whole entry): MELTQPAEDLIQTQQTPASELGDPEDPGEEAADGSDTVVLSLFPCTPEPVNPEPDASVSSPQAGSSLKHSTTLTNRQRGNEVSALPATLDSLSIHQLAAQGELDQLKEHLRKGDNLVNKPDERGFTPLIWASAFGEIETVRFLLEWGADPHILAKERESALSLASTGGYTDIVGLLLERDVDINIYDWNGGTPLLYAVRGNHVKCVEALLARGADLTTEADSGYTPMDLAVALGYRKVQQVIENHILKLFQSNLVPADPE

pKd: 7.12
Substance: RFXB (from UniProt O14593)
